{"source": "the Human Domainome abundance scans (Beltran et al. 2025)", "parents": {"B1": {"name": "E3 ubiquitin-protein ligase NEDD4-like, residues 539 to 589; numbered along this chain, Q96PU5 (parent)", "chain": "KTSLNPNDLGPLPPGWEERIHLDGRTFYIDHNSKITQWEDPRLQNPAITGP"}}, "note": "± gives the uncertainty stated by the source."}
{"variants_of": "B1", "test": "abundance fitness (aPCA) (normalised: wild type 0, dead -1); higher = more abundant; growth selection in yeast, the domain comes from the species named", "conditions": "Homo sapiens"}
{"variant": "E17M", "abundance fitness": "-0.821 ± 0.08"}
{"variant": "E17F", "abundance fitness": "-0.753 ± 0.14"}
{"variant": "E17D", "abundance fitness": "-0.606 ± 0.064"}
{"variant": "E17N", "abundance fitness": "-0.61 ± 0.056"}
{"variant": "E17Y", "abundance fitness": "-0.986 ± 0.14"}
{"variant": "E17H", "abundance fitness": "-0.157 ± 0.12"}
{"variant": "E17C", "abundance fitness": "-0.457 ± 0.047"}
{"variant": "E17I", "abundance fitness": "-0.432 ± 0.11"}
{"variant": "E17P", "abundance fitness": "-0.877 ± 0.19"}
{"variant": "E17S", "abundance fitness": "-0.246 ± 0.055"}
{"variant": "E17T", "abundance fitness": "-0.628 ± 0.069"}
{"variant": "E17K", "abundance fitness": "-0.571 ± 0.051"}
{"variant": "E17R", "abundance fitness": "-0.746 ± 0.046"}
{"variant": "E17L", "abundance fitness": "-0.856 ± 0.07"}
{"variant": "E17V", "abundance fitness": "-0.477 ± 0.065"}
{"variant": "E17Q", "abundance fitness": "-0.361 ± 0.1"}
{"variant": "E17A", "abundance fitness": "-0.705 ± 0.051"}
{"variant": "W16N", "abundance fitness": "-0.222 ± 0.1"}
{"variant": "W16A", "abundance fitness": "-0.342 ± 0.045"}
{"variant": "W16H", "abundance fitness": "-0.386 ± 0.059"}
{"variant": "W16R", "abundance fitness": "-0.408 ± 0.042"}
{"variant": "W16K", "abundance fitness": "-0.29 ± 0.1"}
{"variant": "W16Q", "abundance fitness": "-0.388 ± 0.088"}
{"variant": "W16Y", "abundance fitness": "-0.41 ± 0.098"}
{"variant": "W16G", "abundance fitness": "-0.223 ± 0.053"}
{"variant": "W16I", "abundance fitness": "-0.684 ± 0.1"}
{"variant": "W16D", "abundance fitness": "-0.353 ± 0.065"}
{"variant": "W16L", "abundance fitness": "-0.509 ± 0.043"}
{"variant": "W16C", "abundance fitness": "-0.502 ± 0.086"}
{"variant": "W16S", "abundance fitness": "-0.471 ± 0.065"}
{"variant": "W16E", "abundance fitness": "-0.393 ± 0.081"}
{"variant": "W16T", "abundance fitness": "-0.565 ± 0.075"}
{"variant": "W16P", "abundance fitness": "-0.385 ± 0.081"}
{"variant": "W16M", "abundance fitness": "-0.46 ± 0.082"}
{"variant": "G24K", "abundance fitness": "-0.53 ± 0.05"}
{"variant": "G24M", "abundance fitness": "-1.08 ± 0.18"}
{"variant": "G24W", "abundance fitness": "-1.07 ± 0.077"}
{"variant": "G24P", "abundance fitness": "-1.14 ± 0.12"}
{"variant": "G24F", "abundance fitness": "-1.35 ± 0.22"}
{"variant": "G24N", "abundance fitness": "-0.639 ± 0.12"}
{"variant": "G24I", "abundance fitness": "-1.12 ± 0.24"}
{"variant": "G24Y", "abundance fitness": "-0.76 ± 0.18"}
{"variant": "G24R", "abundance fitness": "-0.56 ± 0.057"}
{"variant": "G24S", "abundance fitness": "-0.531 ± 0.052"}
{"variant": "G24A", "abundance fitness": "-0.608 ± 0.064"}
{"variant": "G24E", "abundance fitness": "-0.719 ± 0.072"}
{"variant": "G24V", "abundance fitness": "-1.03 ± 0.065"}
{"variant": "G24Q", "abundance fitness": "-0.705 ± 0.13"}
{"variant": "G24C", "abundance fitness": "-0.917 ± 0.095"}
{"variant": "G24L", "abundance fitness": "-0.938 ± 0.077"}
{"variant": "I29M", "abundance fitness": "-0.141 ± 0.075"}
{"variant": "I29V", "abundance fitness": "0.013 ± 0.051"}
{"variant": "I29E", "abundance fitness": "-0.105 ± 0.055"}
{"variant": "I29W", "abundance fitness": "-0.332 ± 0.059"}
{"variant": "I29A", "abundance fitness": "-0.299 ± 0.065"}
{"variant": "I29T", "abundance fitness": "-0.166 ± 0.059"}
{"variant": "I29N", "abundance fitness": "-0.378 ± 0.11"}
{"variant": "I29K", "abundance fitness": "-0.027 ± 0.065"}
{"variant": "I29L", "abundance fitness": "-0.175 ± 0.059"}
{"variant": "I29D", "abundance fitness": "-0.422 ± 0.082"}
{"variant": "I29C", "abundance fitness": "-0.124 ± 0.075"}
{"variant": "I29G", "abundance fitness": "-0.482 ± 0.042"}
{"variant": "I29R", "abundance fitness": "-0.271 ± 0.046"}
{"variant": "I29S", "abundance fitness": "-0.318 ± 0.056"}
{"variant": "I29Q", "abundance fitness": "-0.176 ± 0.051"}
{"variant": "I29Y", "abundance fitness": "-0.017 ± 0.098"}
{"variant": "I29H", "abundance fitness": "-0.782 ± 0.17"}
{"variant": "D23N", "abundance fitness": "-0.064 ± 0.065"}
{"variant": "D23C", "abundance fitness": "-0.135 ± 0.057"}
{"variant": "D23F", "abundance fitness": "-1.12 ± 0.16"}
{"variant": "D23H", "abundance fitness": "-0.593 ± 0.062"}
{"variant": "D23I", "abundance fitness": "-0.725 ± 0.067"}
{"variant": "D23L", "abundance fitness": "-0.548 ± 0.068"}
{"variant": "D23A", "abundance fitness": "-0.779 ± 0.079"}
{"variant": "D23K", "abundance fitness": "-0.333 ± 0.088"}
{"variant": "D23Q", "abundance fitness": "-0.252 ± 0.089"}
{"variant": "D23V", "abundance fitness": "-0.876 ± 0.055"}
{"variant": "D23R", "abundance fitness": "-0.645 ± 0.059"}
{"variant": "D23E", "abundance fitness": "-0.584 ± 0.085"}
{"variant": "D23Y", "abundance fitness": "-0.715 ± 0.054"}
{"variant": "D23G", "abundance fitness": "-0.388 ± 0.056"}
{"variant": "D23P", "abundance fitness": "-0.445 ± 0.069"}
{"variant": "D23M", "abundance fitness": "-0.5 ± 0.056"}
{"variant": "D23S", "abundance fitness": "-0.036 ± 0.06"}
{"variant": "D23T", "abundance fitness": "-0.031 ± 0.073"}
{"variant": "R25Q", "abundance fitness": "-0.187 ± 0.063"}
{"variant": "R25F", "abundance fitness": "-0.568 ± 0.044"}
{"variant": "R25T", "abundance fitness": "-0.068 ± 0.043"}
{"variant": "R25A", "abundance fitness": "-0.301 ± 0.047"}
{"variant": "R25M", "abundance fitness": "-0.48 ± 0.048"}
{"variant": "R25W", "abundance fitness": "-0.72 ± 0.064"}
{"variant": "R25Y", "abundance fitness": "-0.569 ± 0.047"}
{"variant": "R25C", "abundance fitness": "-0.393 ± 0.042"}
{"variant": "R25L", "abundance fitness": "-0.598 ± 0.046"}
{"variant": "R25N", "abundance fitness": "-0.164 ± 0.043"}
{"variant": "R25H", "abundance fitness": "-0.382 ± 0.047"}
{"variant": "R25E", "abundance fitness": "-0.198 ± 0.052"}
{"variant": "R25G", "abundance fitness": "-0.265 ± 0.046"}
{"variant": "R25V", "abundance fitness": "-0.54 ± 0.045"}
{"variant": "R25P", "abundance fitness": "-0.558 ± 0.049"}
{"variant": "R25D", "abundance fitness": "-0.287 ± 0.064"}
{"variant": "R25I", "abundance fitness": "-0.757 ± 0.043"}
{"variant": "R25S", "abundance fitness": "-0.063 ± 0.04"}
{"variant": "H31E", "abundance fitness": "-0.243 ± 0.042"}
{"variant": "H31I", "abundance fitness": "-0.017 ± 0.075"}
{"variant": "H31L", "abundance fitness": "-0.04 ± 0.044"}
{"variant": "H31K", "abundance fitness": "0.11 ± 0.072"}
{"variant": "H31A", "abundance fitness": "-0.174 ± 0.052"}
{"variant": "H31W", "abundance fitness": "-0.428 ± 0.077"}
{"variant": "H31Q", "abundance fitness": "-0.224 ± 0.071"}
{"variant": "H31R", "abundance fitness": "-0.156 ± 0.052"}
{"variant": "H31S", "abundance fitness": "-0.08 ± 0.06"}
{"variant": "H31T", "abundance fitness": "0.065 ± 0.054"}
{"variant": "H31F", "abundance fitness": "-0.479 ± 0.12"}
{"variant": "H31D", "abundance fitness": "-0.601 ± 0.095"}
{"variant": "H31Y", "abundance fitness": "-0.414 ± 0.1"}
{"variant": "H31G", "abundance fitness": "-0.243 ± 0.043"}
{"variant": "H31C", "abundance fitness": "-0.149 ± 0.051"}
{"variant": "H31M", "abundance fitness": "0 ± 0.043"}
{"variant": "H31V", "abundance fitness": "-0.07 ± 0.053"}
{"variant": "H21E", "abundance fitness": "-0.052 ± 0.057"}
{"variant": "H21Y", "abundance fitness": "-0.151 ± 0.069"}
{"variant": "H21N", "abundance fitness": "-0.244 ± 0.11"}
{"variant": "H21S", "abundance fitness": "0.221 ± 0.053"}
{"variant": "H21W", "abundance fitness": "-0.051 ± 0.077"}
{"variant": "H21L", "abundance fitness": "-0.289 ± 0.064"}
{"variant": "H21V", "abundance fitness": "-0.296 ± 0.046"}
{"variant": "H21P", "abundance fitness": "-0.693 ± 0.14"}
{"variant": "H21M", "abundance fitness": "-0.124 ± 0.086"}
{"variant": "H21K", "abundance fitness": "-0.178 ± 0.097"}
{"variant": "H21I", "abundance fitness": "-0.478 ± 0.12"}
{"variant": "H21F", "abundance fitness": "-0.439 ± 0.11"}
{"variant": "H21T", "abundance fitness": "0.087 ± 0.072"}
{"variant": "H21G", "abundance fitness": "0.166 ± 0.046"}
{"variant": "H21C", "abundance fitness": "0.057 ± 0.048"}
{"variant": "H21A", "abundance fitness": "0.102 ± 0.062"}
{"variant": "H21R", "abundance fitness": "-0.149 ± 0.064"}
{"variant": "H21D", "abundance fitness": "0.101 ± 0.053"}
{"variant": "S33E", "abundance fitness": "-0.067 ± 0.065"}
{"variant": "S33D", "abundance fitness": "-0.267 ± 0.077"}
{"variant": "S33A", "abundance fitness": "-0.061 ± 0.047"}
{"variant": "S33H", "abundance fitness": "0.098 ± 0.079"}
{"variant": "S33C", "abundance fitness": "-0.153 ± 0.078"}
{"variant": "S33I", "abundance fitness": "-0.42 ± 0.061"}
{"variant": "S33G", "abundance fitness": "-0.344 ± 0.047"}
{"variant": "G15M", "abundance fitness": "-0.406 ± 0.051"}
{"variant": "G15R", "abundance fitness": "-0.498 ± 0.064"}
{"variant": "G15S", "abundance fitness": "-0.394 ± 0.042"}
{"variant": "G15D", "abundance fitness": "-0.471 ± 0.086"}
{"variant": "G15Q", "abundance fitness": "-0.321 ± 0.057"}
{"variant": "G15P", "abundance fitness": "-0.471 ± 0.05"}
{"variant": "G15L", "abundance fitness": "-0.622 ± 0.062"}
{"variant": "G15H", "abundance fitness": "-0.407 ± 0.18"}
{"variant": "G15K", "abundance fitness": "-0.447 ± 0.077"}
{"variant": "G15E", "abundance fitness": "-0.425 ± 0.079"}
{"variant": "G15F", "abundance fitness": "-0.491 ± 0.098"}
{"variant": "G15N", "abundance fitness": "-0.018 ± 0.084"}
{"variant": "G15I", "abundance fitness": "-0.429 ± 0.13"}
{"variant": "G15Y", "abundance fitness": "-0.53 ± 0.13"}
{"variant": "G15A", "abundance fitness": "-0.361 ± 0.048"}
{"variant": "G15T", "abundance fitness": "-0.526 ± 0.065"}
{"variant": "G15C", "abundance fitness": "-0.442 ± 0.056"}
{"variant": "L22M", "abundance fitness": "0.013 ± 0.047"}
{"variant": "L22D", "abundance fitness": "0.048 ± 0.071"}
{"variant": "L22P", "abundance fitness": "0.246 ± 0.052"}
{"variant": "L22C", "abundance fitness": "-0.219 ± 0.088"}
{"variant": "L22T", "abundance fitness": "0.141 ± 0.084"}
